Reference: patent publication US7642244 (Hoffmann-La Roche, dated 2010)
Starred links: 1 amine or outer side, 2 acyl side, 3 side chain; linkers in the order of their positions; H or OH if unused. Non-standard residues stand in square brackets, D forms with d. Pqa = 4-oxo-6-(1-piperazinyl)-3(4H)-quinazoline-acetic acid, O=C(Cn1cnc2ccc(N3CCN([*:1])CC3)cc2c1=O)[*:2]; Phe(3,4-Cl2) = N[C@@H](Cc1ccc(Cl)c(Cl)c1)C(=O)O; Phe(4-CF3) = N[C@@H](Cc1ccc(C(F)(F)F)cc1)C(=O)O; Phe(F5) = N[C@@H](Cc1c(F)c(F)c(F)c(F)c1F)C(=O)O; PEG30,000 SSA = (PEG-30,000)CH2CH2NHCOCH2CH2CO; Phe(3-F) = N[C@@H](Cc1cccc(F)c1)C(=O)O; NMeR = CN[C@@H](CCCNC(=N)N)C(=O)O

How the values were obtained:
Test in all cases: cell-based or functional assay
Y1R = biological target: Y1R
Chain of Y1R (P25929 whole entry): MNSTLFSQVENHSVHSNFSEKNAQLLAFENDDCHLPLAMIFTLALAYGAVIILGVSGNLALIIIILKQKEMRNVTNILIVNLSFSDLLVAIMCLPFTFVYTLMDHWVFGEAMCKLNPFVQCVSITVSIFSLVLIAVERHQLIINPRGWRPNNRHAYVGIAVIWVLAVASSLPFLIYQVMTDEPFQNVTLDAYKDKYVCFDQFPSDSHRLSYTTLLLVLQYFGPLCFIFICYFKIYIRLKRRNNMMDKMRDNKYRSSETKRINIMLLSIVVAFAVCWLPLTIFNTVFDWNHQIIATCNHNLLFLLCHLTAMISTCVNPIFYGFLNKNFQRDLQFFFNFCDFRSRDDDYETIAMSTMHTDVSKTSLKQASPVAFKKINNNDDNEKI

Y4R = biological target: Y4R
Y5R = biological target: T1, Y5R
T1 sequence (Q15761 whole entry, species assumed, looked up): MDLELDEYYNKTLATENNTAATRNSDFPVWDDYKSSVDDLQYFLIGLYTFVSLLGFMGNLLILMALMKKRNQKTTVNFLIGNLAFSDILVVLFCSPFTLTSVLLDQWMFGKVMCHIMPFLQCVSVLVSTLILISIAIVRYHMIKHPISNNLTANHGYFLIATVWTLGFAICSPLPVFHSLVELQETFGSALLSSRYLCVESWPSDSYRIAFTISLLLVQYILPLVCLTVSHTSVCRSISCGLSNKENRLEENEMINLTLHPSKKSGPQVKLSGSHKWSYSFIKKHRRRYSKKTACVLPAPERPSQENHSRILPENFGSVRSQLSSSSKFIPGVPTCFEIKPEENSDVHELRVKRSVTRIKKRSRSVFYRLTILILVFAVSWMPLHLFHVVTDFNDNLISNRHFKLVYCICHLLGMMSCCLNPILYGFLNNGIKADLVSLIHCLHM

human NPY2 receptor = biological target: T2, human NPY2 receptor (human, UniProt P49146 1-381)
T2 sequence (looked up): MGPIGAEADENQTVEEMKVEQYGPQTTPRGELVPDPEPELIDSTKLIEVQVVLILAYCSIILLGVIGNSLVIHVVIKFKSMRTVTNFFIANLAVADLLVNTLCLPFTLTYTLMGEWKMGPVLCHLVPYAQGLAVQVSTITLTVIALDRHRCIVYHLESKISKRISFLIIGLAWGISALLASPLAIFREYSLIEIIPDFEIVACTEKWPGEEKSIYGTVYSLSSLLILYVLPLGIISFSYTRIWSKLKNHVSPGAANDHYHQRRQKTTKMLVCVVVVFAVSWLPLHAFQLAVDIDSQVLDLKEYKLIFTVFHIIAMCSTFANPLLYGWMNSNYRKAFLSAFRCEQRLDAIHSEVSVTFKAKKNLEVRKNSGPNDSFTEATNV

B1: ((PEC30,000)CH2Cl2NHCOCH2CH2CO)Ile-Nle-Pqa-Arg-His-Tyr-Leu-Asn-Trp-Val-Thr-Arg-Gln-(NMe)Arg-Tyr-NH2 (peptide)
peptide: IXXRHYLNWVTRQRY
modifications: PEG30,000-SSA (PEG-CH2CH2NHCOCH2CH2CO-) on the N-terminal Ile; Nle as second residue; Pqa as third residue; (NMe)Arg as penultimate residue; C-terminal amide (NH2)
Y1R
  Y1R EC50 (nM) FLIPR: > 5000 nM
Y4R
  Y4R EC50 (nM) FLIPR: > 5000 nM
Y5R
  Y5R EC50 (nM) FLIPR: > 5000 nM

B2: ((PEG-30,000)CH(CH3)CH2CO)Ile-Nle-Pqa-Arg-His-Tyr-Leu-Asn-Trp-Val-Thr-Arg-Gln-(NMe)Arg-Tyr-NH2 (peptide)
peptide: IXXRHYLNWVTRQRY
modifications: (PEG-30,000)CH(CH3)CH2CO (PEG30,000 beta-SBA) on the N-terminal Ile; Nle as second residue; Pqa as third residue; (NMe)Arg as penultimate residue; C-terminal amide (NH2)
Y1R
  Y1R EC50 (nM) FLIPR: > 5000 nM
Y4R
  Y4R EC50 (nM) FLIPR: > 5000 nM
Y5R
  Y5R EC50 (nM) FLIPR: > 5000 nM

## H-IK(PEG30,000 SSA)[Pqa]RHYLNWVTRQ[NMeR]Y-NH2
Y1R
  Y1R EC50 (nM) FLIPR: > 5000 nM
Y4R
  Y4R EC50 (nM) FLIPR: > 5000 nM
Y5R
  Y5R EC50 (nM) FLIPR: > 5000 nM

B3: H-Ile-Lys-Pqa-Arg-His-Tyr-Leu-Asn-Leu-Val-Thr-Arg-Gln-(NMe)Arg-4 Methoxy-Phe-NH2 (peptide)
peptide: IKXRHYLNLVTRQRF
modifications: Pqa as third residue; (NMe)Arg as penultimate residue; 4 Methoxy-Phe as C-terminal residue; C-terminal amide (NH2)
Human NPY2 receptor
  Y2R EC50 (nM) FLIPR: 0.74 nM
  Y2R EC50 (nM) cAMP: 0.55 nM

## H-IK[Pqa]RHYLNLVTRQ[NMeR]F-NH2 [H-Ile-Lys-Pqa-Arg-His-Tyr-Leu-Asn-Leu-Val-Thr-Arg-Gln-(NMe)Arg-Phe-NH2]
Human NPY2 receptor
  Y2R EC50 (nM) FLIPR: 1.54 nM
  Y2R EC50 (nM) cAMP: 0.69 nM

## H-IK[Pqa]RHYLNLVTRQ[NMeR][Phe(4-CF3)]-NH2 [H-Ile-Lys-Pqa-Arg-His-Tyr-Leu-Asn-Leu-Val-Thr-Arg-Gln-(NMe)Arg-4-trifluoro methyl-Phe-NH2]
Human NPY2 receptor
  Y2R EC50 (nM) FLIPR: 6.13 nM
  Y2R EC50 (nM) cAMP: 3.55 nM

## H-IK[Pqa]RHYLNLVTRQ[NMeR][Phe(3-F)]-NH2 [H-Ile-Lys-Pqa-Arg-His-Tyr-Leu-Asn-Leu-Val-Thr-Arg-Gln-(NMe)Arg-3Fluoro-Phe-NH2]
Human NPY2 receptor
  Y2R EC50 (nM) FLIPR: 0.635 nM
  Y2R EC50 (nM) cAMP: 0.75 nM

## H-IK[Pqa]RHYLNLVTRQ[NMeR][Phe(F5)]-NH2 [H-Ile-Lys-Pqa-Arg-His-Tyr-Leu-Asn-Leu-Val-Thr-Arg-Gln-(NMe)Arg-2,3,4,5,6 Pentafluoro-Phe-NH2]
Human NPY2 receptor
  Y2R EC50 (nM) FLIPR: 11.9 nM
  Y2R EC50 (nM) cAMP: 2.5 nM

## H-IK[Pqa]RHYLNLVTRQ[NMeR][Phe(3,4-Cl2)]-NH2 [H-Ile-Lys-Pqa-Arg-His-Tyr-Leu-Asn-Leu-Val-Thr-Arg-Gln-(NMe)Arg-3,4-dichloro-Phe-NH2]
Human NPY2 receptor
  Y2R EC50 (nM) FLIPR: 4.03 nM
  Y2R EC50 (nM) cAMP: 1.47 nM

B4: H-Ile-Lys-Pqa-Arg-His-Tyr-Leu-Asn-Leu-Val-Thr-Arg-Gln-(NMe)Arg-Cha-NH2 (peptide)
peptide: IKXRHYLNLVTRQRX
modifications: Pqa as third residue; (NMe)Arg as penultimate residue; Cha (Cyclohexyl Alanine) as C-terminal residue; C-terminal amide (NH2)
Human NPY2 receptor
  Y2R EC50 (nM) FLIPR: 0.498 nM
  Y2R EC50 (nM) cAMP: 0.5 nM
Y1R
  Y1R EC50 (nM) FLIPR: > 5000 nM
Y5R
  Y5R EC50 (nM) FLIPR: 352 nM

B5: H-Ile-Lys-Pqa-Arg-His-Tyr-Leu-Asn-Leu-Val-Thr-Arg-Gln-(NMe)Arg-1-Nal-NH2 (peptide)
peptide: IKXRHYLNLVTRQRX
modifications: Pqa as third residue; (NMe)Arg as penultimate residue; 1-Nal (1-Naphthyl Alanine) as C-terminal residue; C-terminal amide (NH2)
Human NPY2 receptor
  Y2R EC50 (nM) FLIPR: 2.73 nM
  Y2R EC50 (nM) cAMP: 1.14 nM
